According to patent US5457182A (Merck & Co., Inc., priority 1994, dated 1995):

What was measured:
[1] = Peptidyl-prolyl cis-trans isomerase (PPIase) activity; assay type: biochemical; details: homogeneous FKBP12 vs partially pure (about 25%) FKBP12.6
Method: PPIase assays were performed as described (Fischer, G., et al., Nature, 337,476-478 (1989)) with the following changes: the peptide substrate used was N-succinyl-Ala-Leu-Pro-Phe-p-nitroanilide (BACHEM, California) at a final concentration of 72 μM and chymotrypsin (Sigma) was present in the assay at a concentration of 6 μM. The total reaction volume was 1.5 ml. The release of p-nitroanilide by chymotrypsin was measured by following the increase in absorbance at 405 nm on a Beckman DU68 spectrophotometer. After an initial rapid rise in absorbance due to hydrolysis of the trans peptide, the slow secondary increase in absorbance which reflects the cis-to-trans conversion of the peptide by the PPIase was measured at 3 sec intervals out to 1.5 min. The data were fitted to a simple first-order rate equation and the first-order rate constant, k (s^-1), calculated.

calcineurin [2] = assay: FKBP.FK-506.CaN complex-formation assay (size-exclusion column, Western analysis); assay type: binding, bovine; details: partially purified FKBPs, CaM, Ca^2+, Mg^2+ and FK-506
Method: In the modified assay, samples were assayed by Western analysis using the anti-C-terminal peptide antibody in order to identify FKBP12 and FKBP12.6 in various chromatographic fractions.
In the first experiment, FKBP12 and FKBP12.6 were partially purified by preparative HPLC gel filtration chromatography on a Bio-Sil TSK-125 column. These partially purified FKBPs (containing both FKBP12 and FKBP12.6) are devoid of CaN which separates completely from them on this column. FKBP12 and FKBP12.6 co-elute at fractions 26 and 27 on the analytical sizing column (G2000SW) used in this experiment. […] Because this crude FKBP material also contains FKBP12.6, it can also be observed migrating slightly above FKBP12 in FIG. 4A.
To more carefully examine the requirements for FKBP12.6 complex formation with CaN, experiments were conducted using purified FKBP12.6.
The incubation buffer contained 20 mM Tris (pH 7.5), 100 mM NaCl, 6 mM MgCl2, 0.1 mM CaCl2, 0.1 mg/ml BSA, and 0.5 mM dithiothreitol. The incubation reaction was chromatographed on a Bio-Sil SEC400 HPLC column (Bio-Rad) at a flow rate of 1 ml/min and 1 min fractions were collected. The chromatography buffer was the same as the incubation buffer except that BSA was omitted. 30 μl of fractions 19-29 were subjected to electrophoresis on a 16% Novex Tris-Glycine gel and Western analysis was performed as described above.

calcineurin [3] = assay: Calcineurin phosphatase assay; assay type: biochemical, bovine; details: in presence of FK-506, CaN, CaM, Ca^2+, Mg^2+; read-out: IC50 for inhibition of CaN
Method: For a side-by-side comparison, FKBP12 was also tested for its ability to inhibit calcineurin in the presence of drug.
The calcineurin phosphatase assay is a modified version of previous assays (Liu, J., et al., Cell, 66, 807-815 (1991); Manalan, A., et al., Proc. Natl. Acad. Sci. U.S.A., 80, 4291-4295 (1983)). Reaction mixtures ([…] contained: 40 mM Tris (pH 8), 100 mM NaCl, 6 mM Mg(OAc)2, 0.1 mM CaCl2, 0.1 mg/ml BSA, 0.5 mM dithiothreitol, 190 nM bovine brain calmodulin (Sigma), 3 nM bovine brain calcineurin (Sigma), and 40 μM [^33 P]RII peptide (Peptides International) (600 cpm/pmole). Reaction mixtures were pre-incubated for 30 min at 30° C. prior to addition of the labeled peptide. The reaction was initiated by addition of the peptide and the dephosphorylation reaction was allowed to proceed for 10 min at 30° C. The reaction was terminated by the addition of 0.5 ml of 5% trichloroacetic acid containing 100 mM sodium phosphate (stop buffer) and applied to a 0.5 ml Dowex 50W-X8, H^+ column. Free [^33 P]phosphate was eluted from the column with 0.5 ml of stop buffer followed by 0.5 ml of water.

slope of PPIase rate relative to FKBP12.6 [1]: 4.1 fold
IC50 (calcineurin [3]): 9.9 nM
B1: FKBP12: abundant, cytosolic 11.8 kDa protein termed the FK-506 binding protein; bovine sequence SEQ ID NO:2 (protein)
chain: GVQVETISPGDGRTFPKRGQTCVVHYTGMLEDGKKFDSSRDRNKPFKFVLGKQEVIRGWEEGVAQMSVGQRAKLTISPDYAYGATGHPGIIPPNATLIFDVELLKLE
complex formation with CaN (calcineurin [2]): a significant fraction of FKBP12 is in the FKBP12.FK-506-CaN complex
